From patent publication US20130189714A1, “METHOD FOR THE DETECTION AND/OR QUANTIFICATION OF THE INTERACTION OF PLATELETS WITH INTERACTION PARTNERS” (SANOFI, priority 2010, published 2013)
Each block holds one substance with its values, some of them ahead of it.

Tests used:
[1] = biological target: collagen receptor on live human platelets (human); test: platelet adhesion to rat tail collagen 1 coated wells vs BSA, 6 plates under automated conditions, Acumen cytometry
[2] = biological target: platelet glycoprotein GpIb alpha (CD42b antigen), on live human platelets (human) (UniProt P07359); test: platelet adhesion to vWF-A1 coated wells, AK2 at 2 ug/ml, Acumen cytometry
Sequence of platelet glycoprotein GpIb alpha (CD42b antigen), on live human platelets (human) (P07359 17-652): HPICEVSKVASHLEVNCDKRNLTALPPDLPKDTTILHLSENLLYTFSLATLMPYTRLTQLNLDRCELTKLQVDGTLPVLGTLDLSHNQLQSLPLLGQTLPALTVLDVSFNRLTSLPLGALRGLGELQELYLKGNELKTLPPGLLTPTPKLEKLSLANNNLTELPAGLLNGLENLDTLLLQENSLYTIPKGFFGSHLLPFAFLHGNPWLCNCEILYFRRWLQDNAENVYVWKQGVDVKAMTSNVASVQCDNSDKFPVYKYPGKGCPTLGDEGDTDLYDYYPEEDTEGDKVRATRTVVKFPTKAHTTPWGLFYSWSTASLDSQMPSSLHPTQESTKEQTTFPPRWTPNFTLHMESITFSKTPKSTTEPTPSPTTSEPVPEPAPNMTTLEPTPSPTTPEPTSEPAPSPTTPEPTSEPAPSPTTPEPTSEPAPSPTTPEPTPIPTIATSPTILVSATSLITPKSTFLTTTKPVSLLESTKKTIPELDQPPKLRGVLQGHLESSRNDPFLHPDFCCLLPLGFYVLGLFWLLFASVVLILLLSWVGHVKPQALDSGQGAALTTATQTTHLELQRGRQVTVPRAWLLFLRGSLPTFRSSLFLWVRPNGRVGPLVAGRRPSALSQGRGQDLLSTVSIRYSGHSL

[3] = biological target: platelet glycoprotein GpIb alpha (CD42b antigen), on live human platelets (human) (UniProt P07359); test: platelet adhesion to coated wells, optimized wash program, Acumen cytometry; reference BSA-coated wells
[4] = biological target: platelet glycoprotein GpIb alpha (CD42b antigen), on live human platelets (human) (UniProt P07359); test: platelet adhesion to vWF-A1 coated wells vs BSA-coated wells, optimized washer settings, Acumen cytometry
[5] = biological target: platelet glycoprotein GpIb alpha (CD42b antigen), on live human platelets (human) (UniProt P07359); test: platelet adhesion to vWF-A1 coated wells vs BSA, automated run of 30 plates, Acumen cytometry

Sequence of vWF-A1 (von Willebrand factor A1 domain, Aa 475-706), His-tagged recombinant protein (ligand) (chain): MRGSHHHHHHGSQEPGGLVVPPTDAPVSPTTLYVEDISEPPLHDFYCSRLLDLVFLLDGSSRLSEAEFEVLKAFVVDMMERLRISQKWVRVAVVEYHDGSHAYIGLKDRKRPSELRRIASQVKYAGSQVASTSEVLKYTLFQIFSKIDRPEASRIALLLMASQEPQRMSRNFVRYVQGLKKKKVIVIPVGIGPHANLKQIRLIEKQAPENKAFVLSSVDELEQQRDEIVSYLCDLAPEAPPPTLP

S/B [1]: 20 fold
Substance: Collagen I (rat tail, SIGMA C8897) (from UniProt P02454 152-1207; P02466 86-1125) (ligand)

% inhibition of platelet adhesion [2]: 90%
Substance: Mouse anti-human CD42b monoclonal antibody, clone AK2 (Chemicon international, catalog No. CBL166)

S/B (number platelets attached to vWF-A1 vs BSA) [3]: 70 fold
S/B [4]: 78 fold
S/B [5]: 20 fold
Substance: vWF-A1 (von Willebrand factor A1 domain, Aa 475-706), His-tagged recombinant protein (ligand)
